From patent publication US20250382362A1 (UNIVERSIT TSKLINIKUM REGENSBURG, published 2025)
Positions count from the first letter of the chain named.

B1: Chimeric P8C11 (antibody, V domains shown)
VH: QVQLQQSGAEMVRPGVSVKIACKGSGFTFTDYALHWVKQSHAKSLEWIGLISTYYGDTTYNQRFKGKATMTVDKSSSTAYMELARLTSEDSAIYYCVITTVAGTDAMDYWGQGTSVTVSS
VL: DIQMNQSPSSLSASLGDTITITCHASQNINVWLSWYQQKPGNIPKLLIYKASNLHTGVPSRFSGSGSGTGFTLTISSLQPEDIATYYCQQGYSYPYTFGGGTKLEIK
B2: MuHC × LC2 (antibody, V domains shown)
VH: B1 VH
VL: B1 VL with N5T, L15V, T18R, I19V, N42K, I43A, G70D, L73F
B3: HC3 × MuLC (antibody, V domains shown)
VH: QVQLVQSGAEMKKPGASVKVACKGSGFTFTDYALHWVRQAPGQRLEWMGLISTYYGDTTYNQRFKGRVTITRDTSASTAYMELSSLRSEDTAIYYCVITTVAGTDAMDYWGQGTLVTVSS
VL: B1 VL
B4: HC11 × LC2 (antibody, V domains shown)
VH: B3 VH with M11V, I70M, R72A, T74K, A76T, I93V
VL: B1 VL with N5T, L15V, T18R, I19V, N42K, I43A, G70D, L73F
B5: HC12 × LC2 (antibody, V domains shown)
VH: B3 VH with M11V, I70M, R72V, T74K, A76T, I93V
VL: B1 VL with N5T, L15V, T18R, I19V, N42K, I43A, G70D, L73F
B6: HC13 × LC2 (antibody, V domains shown)
VH: B3 VH with M11V, I70M, R72A, T74K, A76S, I93V
VL: B1 VL with N5T, L15V, T18R, I19V, N42K, I43A, G70D, L73F
B7: HC15 × LC2 (antibody, V domains shown)
VH: B3 VH with M11V, G24A, I70M, R72A, T74K, A76T, I93V
VL: B1 VL with N5T, L15V, T18R, I19V, N42K, I43A, G70D, L73F
B8: HC14 × LC2 (antibody, V domains shown)
VH: B3 VH with M11V, A21S, I70M, R72A, T74K, A76T, I93V
VL: B1 VL with N5T, L15V, T18R, I19V, N42K, I43A, G70D, L73F
B9: HC8 × LC2 (antibody, V domains shown)
VH: B3 VH with A21S, G24A, I70M, R72V, T74K, A76S
VL: B1 VL with N5T, L15V, T18R, I19V, N42K, I43A, G70D, L73F
B10: HC7 × LC2 (antibody, V domains shown)
VH: B3 VH with M11V, I70M, R72V, T74K, A76S, I93V
VL: B1 VL with N5T, L15V, T18R, I19V, N42K, I43A, G70D, L73F
B11: HC10 × LC2 (antibody, V domains shown)
VH: B3 VH with R72V, T74K
VL: B1 VL with N5T, L15V, T18R, I19V, N42K, I43A, G70D, L73F
B12: HC9 × LC2 (antibody, V domains shown)
VH: B3 VH with I70M, R72V, T74K
VL: B1 VL with N5T, L15V, T18R, I19V, N42K, I43A, G70D, L73F
B13: HC4 × LC2 (antibody, V domains shown)
VH: B3 VH with R67K, V68A, I70M, R72V, T74K, A76S
VL: B1 VL with N5T, L15V, T18R, I19V, N42K, I43A, G70D, L73F
B14: HC6 × LC2 (antibody, V domains shown)
VH: B3 VH with I70M, R72V, T74K, A76S
VL: B1 VL with N5T, L15V, T18R, I19V, N42K, I43A, G70D, L73F
B15: HC5 × LC2 (antibody, V domains shown)
VH: B3 VH with S84A, S85R, R87T, T91S, L115S
VL: B1 VL with N5T, L15V, T18R, I19V, N42K, I43A, G70D, L73F
B16: HC1 × LC2 (antibody, V domains shown)
VH: B3 VH with M11V, A21S, G24A, I93V
VL: B1 VL with N5T, L15V, T18R, I19V, N42K, I43A, G70D, L73F
B17: HC1 × LC3 (antibody, V domains shown)
VH: B3 VH with M11V, A21S, G24A, I93V
VL: B1 VL with N5T, L15V, T18R, I19V, N42K, I43V, G70D, I83V
B18: HC3 × LC1 (antibody, V domains shown)
VH: B3 VH
VL: B1 VL with N5T, L11V, L15V, T18R, I19V, N42K, I43A, G70D, I83F
B19: HC1 × LC1 (antibody, V domains shown)
VH: B3 VH with M11V, A21S, G24A, I93V
VL: B1 VL with N5T, L11V, L15V, T18R, I19V, N42K, I43A, G70D, I83F
B20: HC2 × LC3 (antibody, V domains shown)
VH: QVQLVQSGSELKKPGASVKVSCKASGFTFTDYALHWVRQAPGQGLEWMGLISTYYGDTTYNQRFKGRFVFSLDTSVSTAYLQISSLKAEDTAVYYCVITTVAGTDAMDYWGQGTLVTVSS
VL: B1 VL with N5T, L15V, T18R, I19V, N42K, I43V, G70D, I83V
B21: HC2 × LC2 (antibody, V domains shown)
VH: B20 VH
VL: B1 VL with N5T, L15V, T18R, I19V, N42K, I43A, G70D, L73F
B22: HC2 × LC1 (antibody, V domains shown)
VH: B20 VH
VL: B1 VL with N5T, L11V, L15V, T18R, I19V, N42K, I43A, G70D, I83F
B23: HC3 × LC2 (antibody, V domains shown)
VH: B3 VH
VL: B1 VL with N5T, L15V, T18R, I19V, N42K, I43A, G70D, L73F
B24: HC3 × LC3 (antibody, V domains shown)
VH: B3 VH
VL: B1 VL with N5T, L15V, T18R, I19V, N42K, I43V, G70D, I83V
B25: HC3.MMH × muLC (antibody, V domains shown)
VH: QVQLQQSGAEMVRPGVSVKIACKGSGFTFTDYALHWVKQSHAKSLEWIGLISTYYGDTTYNQRFKGRVTITRDTSASTAYMELSSLRSEDTAIYYCVITTVAGTDAMDYWGQGTLVTVSS
VL: B1 VL
B26: HC3.HMM × muLC (antibody, V domains shown)
VH: B1 VH with Q5V, V12K, R13K, V16A, I20V
VL: B1 VL
B27: HC3.MHM × muLC (antibody, V domains shown)
VH: B1 VH with K38R, S40A, H41P, A42G, K43Q, S44R, I48M
VL: B1 VL

These binders were tested against T1, human IL3 (human, UniProt P08700 20-152) (assay: cell-based or functional assay).
T1 sequence: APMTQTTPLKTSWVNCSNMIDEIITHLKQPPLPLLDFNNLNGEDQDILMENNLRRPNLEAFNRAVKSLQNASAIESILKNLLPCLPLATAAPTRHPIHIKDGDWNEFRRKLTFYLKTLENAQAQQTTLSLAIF

Row | Binder | Inhibitory activity (block of IL-3 induced downregulation of CD131 on primary human basophils; chimeric P8C11 normalized to 100%) [%]
1 | B1 | 100
2 | B2 | 100
3 | B3 | 6

Target: T1, human IL3
Assay: cell-based or functional assay
Remark: another data set of the same source

Row | Binder | Inhibitory activity (block of IL-3 induced downregulation of CD131 on primary human basophils; chimeric P8C11 normalized to 100%) [%]
4 | B1 | 100
5 | B4 | 25
6 | B5 | 100
7 | B6 | 25
8 | B7 | 8
9 | B8 | 25

Target: T1, human IL3
Assay: cell-based or functional assay
Remark: another data set of the same source

Row | Binder | Inhibitory activity (block of IL-3 induced downregulation of CD131 on primary human basophils; chimeric P8C11 normalized to 100%) [%]
10 | B1 | 100
11 | B9 | 25
12 | B10 | 100
13 | B11 | 40
14 | B12 | 50

Target: T1, human IL3
Assay: cell-based or functional assay
Remark: another data set of the same source

Row | Binder | Inhibitory activity (block of IL-3 induced downregulation of CD131 on primary human basophils; chimeric P8C11 normalized to 100%) [%]
15 | B1 | 100
16 | B13 | 100
17 | B14 | 100
18 | B15 | 9

Target: T1, human IL3
Assay: cell-based or functional assay
Remark: another data set of the same source

Row | Binder | Inhibitory activity (block of IL-3 induced downregulation of CD131 on primary human basophils; chimeric P8C11 normalized to 100%) [%]
19 | B1 | 100
20 | B16 | 2
21 | B17 | 2
22 | B18 | 6
23 | B19 | 2
24 | B20 | 0.5
25 | B21 | 0.5
26 | B22 | 0.5
27 | B23 | 6
28 | B24 | 6

Target: T1, human IL3
Assay: cell-based or functional assay
Remark: another data set of the same source

Row | Binder | Inhibitory activity (block of IL-3 induced downregulation of CD131 on primary human basophils; chimeric P8C11 normalized to 100%) [%]
29 | B1 | 100
30 | B25 | 4
31 | B26 | 100
32 | B27 | 100
